Residue numbers refer to the chain shown, from its start. Like-named read-outs stand apart in the source and are kept apart here.
T1: huNotch2-EGF6-10 (human, UniProt Q04721 219-418)
T1 construct: also called human Notch2 EGF6-10
T1 sequence: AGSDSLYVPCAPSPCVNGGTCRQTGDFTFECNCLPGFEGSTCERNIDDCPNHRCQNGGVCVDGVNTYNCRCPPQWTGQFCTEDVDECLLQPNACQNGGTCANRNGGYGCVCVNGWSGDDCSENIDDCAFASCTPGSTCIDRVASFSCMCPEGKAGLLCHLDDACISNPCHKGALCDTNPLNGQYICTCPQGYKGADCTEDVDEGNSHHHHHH

T2: huNotch3 (human)
T2 construct: The entry named huNotch3 is a tagged EGF-repeat fragment; also called human Notch3
T2 chain: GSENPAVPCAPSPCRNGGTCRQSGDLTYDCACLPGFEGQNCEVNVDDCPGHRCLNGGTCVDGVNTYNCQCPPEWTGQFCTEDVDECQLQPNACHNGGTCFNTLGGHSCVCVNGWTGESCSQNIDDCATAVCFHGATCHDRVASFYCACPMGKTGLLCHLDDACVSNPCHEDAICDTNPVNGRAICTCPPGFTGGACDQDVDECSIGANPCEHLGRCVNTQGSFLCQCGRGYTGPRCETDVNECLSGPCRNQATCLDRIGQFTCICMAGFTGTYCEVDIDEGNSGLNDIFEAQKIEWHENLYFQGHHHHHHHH

T3: huNotch1 (human)
T3 construct: The entry named huNotch1 is a tagged EGF-repeat fragment; also called human Notch1
T3 chain: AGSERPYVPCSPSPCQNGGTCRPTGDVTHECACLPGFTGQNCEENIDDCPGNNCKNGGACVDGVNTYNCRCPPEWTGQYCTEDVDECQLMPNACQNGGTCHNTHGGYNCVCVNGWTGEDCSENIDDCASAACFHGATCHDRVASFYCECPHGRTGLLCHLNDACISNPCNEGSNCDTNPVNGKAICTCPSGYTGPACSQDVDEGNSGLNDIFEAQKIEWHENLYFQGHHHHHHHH

T4: gpNotch2-EGF6-12 (guinea pig)
T4 construct: also called guinea pig Notch2 EGF6-12
T4 chain: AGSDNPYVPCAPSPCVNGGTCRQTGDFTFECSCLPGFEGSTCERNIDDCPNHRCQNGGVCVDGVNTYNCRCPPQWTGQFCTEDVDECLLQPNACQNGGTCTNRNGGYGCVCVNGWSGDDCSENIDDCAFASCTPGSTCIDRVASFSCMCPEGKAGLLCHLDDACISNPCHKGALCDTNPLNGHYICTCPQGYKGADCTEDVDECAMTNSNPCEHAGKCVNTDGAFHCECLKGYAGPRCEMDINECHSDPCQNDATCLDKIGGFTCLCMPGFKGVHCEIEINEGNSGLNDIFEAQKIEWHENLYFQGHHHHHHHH

T5: huNotch2-EGF5-8 (human)
T5 chain: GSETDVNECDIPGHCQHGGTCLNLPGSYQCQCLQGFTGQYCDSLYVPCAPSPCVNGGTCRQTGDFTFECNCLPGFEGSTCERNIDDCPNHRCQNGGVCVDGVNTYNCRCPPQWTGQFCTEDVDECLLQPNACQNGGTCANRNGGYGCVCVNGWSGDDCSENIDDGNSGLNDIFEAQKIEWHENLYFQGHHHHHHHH

T6: huNotch2-EGF7-9 (human)
T6 chain: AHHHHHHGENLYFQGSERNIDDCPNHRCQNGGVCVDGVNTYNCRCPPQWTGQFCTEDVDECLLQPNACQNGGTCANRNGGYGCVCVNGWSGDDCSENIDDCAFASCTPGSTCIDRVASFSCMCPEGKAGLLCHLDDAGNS

T7: muNotch2-EGF6-12.K268R (mouse)
T7 chain: T4 chain with N5S, S32N, F129Y, M148L, H183Q, T207A, I278L, I280V

T8: huNotch2-EGF4-7 (human)
T8 chain: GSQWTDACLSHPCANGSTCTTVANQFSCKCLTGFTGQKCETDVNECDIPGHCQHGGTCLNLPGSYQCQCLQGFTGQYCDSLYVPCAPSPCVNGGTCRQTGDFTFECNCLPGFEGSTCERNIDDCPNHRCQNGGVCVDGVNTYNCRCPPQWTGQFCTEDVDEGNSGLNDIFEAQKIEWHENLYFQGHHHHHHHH

B1: hu1B2.v101 (antibody, V domains shown)
VH: EVQLVESGGGLVQPGGSLKLSCAVSGFTFSDFYMEWVRQASGKGLEWVAAQRNKANDFSIVYSASVKDRFTISRDDSKSTLYLQMNSLKTEDTAVYYCSRDGGRWGLDAWGQGTLVTVSS
VL: DIQMTQSPSSVSASVGDRVTITCQTSEDIYSGLAWYQQKPGKSPKLLIYGASRLQDGVPSRFSGSGSGTDYTLTISSLQPEDFATYYCQQGFKYPLTFGGGTKVEIK
notes: Human IgG1 backbone
B2: hu1B2.v103 (antibody, V domains shown)
VH: B1 VH with R104K
VL: B1 VL
notes: Human IgG1 backbone
B3: rat.3107 (rat/human chimeric anti-Notch2 antibody 3107) (antibody, V domains shown)
VH: QVQLQQSGAELAKSGSSVKISCKASGYTFSNYVIHWIKQTTGQAPEWTGYIIPGSGGTKFNEKFKGKATLTVDKSSTTAYMQLSSLTPVDTAVYYCARDGAGSFTYWGQGTLVTVSS
VL: DVLMTQTPVSLPVSLGGQVSISCRSSQSLVHSDGNTYLHWFLQKPGQSPQLLIYRISNRFSGVPDRFSGSGSGTDFTLKISRVEPEDLGVYYCLQSTHFPDTFGGGTKVEIK

Assays:
huNotch2-EGF6-10 [1] = biological target: T1, huNotch2-EGF6-10; assay: SPR BIAcore T200, antibody captured on protein A, 37 C
Description: (§1) The binding affinities of the antibodies was determined by BIAcore™ T200 machine. Rabbit antibodies were expressed as chimeric antibodies with rabbit variable domains and human constant domains. Rat antibodies were expressed as chimeric antibodies with rat variable domains and human constant regions. Humanized antibodies were expressed in the human IgG1 backbone. For kinetics measurements, antibodies were captured on research grade protein A chip (GE Healthcare) to achieve approximately 300 RU. Ten-fold serial dilutions of huNotch2-EGF6-10 were injected in HBS-P buffer with additional 3 mM CaCl₂ at 37° C. with a flow rate of 100 μL/min. Association rates (ka) and dissociation rates (kd) were calculated using a 1:1 Langmuir binding model (BIAcore™ T200 Evaluation Software version 2.0). The equilibrium dissociation constant (KD) was calculated as the ratio kd/ka.

[2] = biological target: T9, human Notch2 on U-87 MG cells (human, UniProt Q04721 26-2471); assay: cell-based or functional assay
huNotch3 = biological target: T2, huNotch3; assay: SPR
huNotch1 = biological target: T3, huNotch1; assay: SPR
gpNotch2-EGF6-12 = biological target: T4, gpNotch2-EGF6-12; assay: SPR BIAcore, antibody captured on protein A, 37 C
Description: (§2) Binding of the anti-Notch2 antibodies to Notch2 from additional species and to constructs comprising different EGF repeat regions was evaluated by BIAcore™. For this experiment, the antibodies with human constant regions were captured on a protein A chip to achieve approximately 200 RU. Ten-fold serial dilutions of various antigens were injected in HIBS-P buffer with additional 3 mM CaCl₂ at 37° C. with a flow rate of 100 μL/min.

huNotch2-EGF5-8 = biological target: T5, huNotch2-EGF5-8; assay: SPR BIAcore, antibody captured on protein A, 37 C
Description: as §2

huNotch2-EGF7-9 = biological target: T6, huNotch2-EGF7-9; assay: SPR BIAcore, antibody captured on protein A, 37 C
Description: as §2

muNotch2-EGF6-12.K268R = biological target: T7, muNotch2-EGF6-12.K268R; assay: SPR BIAcore, antibody captured on protein A, 37 C
Description: as §2

huNotch2-EGF4-7 = biological target: T8, huNotch2-EGF4-7; assay: SPR BIAcore, antibody captured on protein A, 37 C
Description: as §2

huNotch2-EGF6-10 [3] = biological target: T1, huNotch2-EGF6-10; assay: SPR BIAcore, separate experiment, substantially as for Table 4
Description: as §1
In a separate experiment, the binding affinities of the humanized versions of the rat 3107 antibody were determined, substantially as described above.

[4] = biological target: T9, human Notch2 on U-87 MG cells; assay: cell-based or functional assay; remark: listed apart in the source

T9 sequence (Q04721 26-2471): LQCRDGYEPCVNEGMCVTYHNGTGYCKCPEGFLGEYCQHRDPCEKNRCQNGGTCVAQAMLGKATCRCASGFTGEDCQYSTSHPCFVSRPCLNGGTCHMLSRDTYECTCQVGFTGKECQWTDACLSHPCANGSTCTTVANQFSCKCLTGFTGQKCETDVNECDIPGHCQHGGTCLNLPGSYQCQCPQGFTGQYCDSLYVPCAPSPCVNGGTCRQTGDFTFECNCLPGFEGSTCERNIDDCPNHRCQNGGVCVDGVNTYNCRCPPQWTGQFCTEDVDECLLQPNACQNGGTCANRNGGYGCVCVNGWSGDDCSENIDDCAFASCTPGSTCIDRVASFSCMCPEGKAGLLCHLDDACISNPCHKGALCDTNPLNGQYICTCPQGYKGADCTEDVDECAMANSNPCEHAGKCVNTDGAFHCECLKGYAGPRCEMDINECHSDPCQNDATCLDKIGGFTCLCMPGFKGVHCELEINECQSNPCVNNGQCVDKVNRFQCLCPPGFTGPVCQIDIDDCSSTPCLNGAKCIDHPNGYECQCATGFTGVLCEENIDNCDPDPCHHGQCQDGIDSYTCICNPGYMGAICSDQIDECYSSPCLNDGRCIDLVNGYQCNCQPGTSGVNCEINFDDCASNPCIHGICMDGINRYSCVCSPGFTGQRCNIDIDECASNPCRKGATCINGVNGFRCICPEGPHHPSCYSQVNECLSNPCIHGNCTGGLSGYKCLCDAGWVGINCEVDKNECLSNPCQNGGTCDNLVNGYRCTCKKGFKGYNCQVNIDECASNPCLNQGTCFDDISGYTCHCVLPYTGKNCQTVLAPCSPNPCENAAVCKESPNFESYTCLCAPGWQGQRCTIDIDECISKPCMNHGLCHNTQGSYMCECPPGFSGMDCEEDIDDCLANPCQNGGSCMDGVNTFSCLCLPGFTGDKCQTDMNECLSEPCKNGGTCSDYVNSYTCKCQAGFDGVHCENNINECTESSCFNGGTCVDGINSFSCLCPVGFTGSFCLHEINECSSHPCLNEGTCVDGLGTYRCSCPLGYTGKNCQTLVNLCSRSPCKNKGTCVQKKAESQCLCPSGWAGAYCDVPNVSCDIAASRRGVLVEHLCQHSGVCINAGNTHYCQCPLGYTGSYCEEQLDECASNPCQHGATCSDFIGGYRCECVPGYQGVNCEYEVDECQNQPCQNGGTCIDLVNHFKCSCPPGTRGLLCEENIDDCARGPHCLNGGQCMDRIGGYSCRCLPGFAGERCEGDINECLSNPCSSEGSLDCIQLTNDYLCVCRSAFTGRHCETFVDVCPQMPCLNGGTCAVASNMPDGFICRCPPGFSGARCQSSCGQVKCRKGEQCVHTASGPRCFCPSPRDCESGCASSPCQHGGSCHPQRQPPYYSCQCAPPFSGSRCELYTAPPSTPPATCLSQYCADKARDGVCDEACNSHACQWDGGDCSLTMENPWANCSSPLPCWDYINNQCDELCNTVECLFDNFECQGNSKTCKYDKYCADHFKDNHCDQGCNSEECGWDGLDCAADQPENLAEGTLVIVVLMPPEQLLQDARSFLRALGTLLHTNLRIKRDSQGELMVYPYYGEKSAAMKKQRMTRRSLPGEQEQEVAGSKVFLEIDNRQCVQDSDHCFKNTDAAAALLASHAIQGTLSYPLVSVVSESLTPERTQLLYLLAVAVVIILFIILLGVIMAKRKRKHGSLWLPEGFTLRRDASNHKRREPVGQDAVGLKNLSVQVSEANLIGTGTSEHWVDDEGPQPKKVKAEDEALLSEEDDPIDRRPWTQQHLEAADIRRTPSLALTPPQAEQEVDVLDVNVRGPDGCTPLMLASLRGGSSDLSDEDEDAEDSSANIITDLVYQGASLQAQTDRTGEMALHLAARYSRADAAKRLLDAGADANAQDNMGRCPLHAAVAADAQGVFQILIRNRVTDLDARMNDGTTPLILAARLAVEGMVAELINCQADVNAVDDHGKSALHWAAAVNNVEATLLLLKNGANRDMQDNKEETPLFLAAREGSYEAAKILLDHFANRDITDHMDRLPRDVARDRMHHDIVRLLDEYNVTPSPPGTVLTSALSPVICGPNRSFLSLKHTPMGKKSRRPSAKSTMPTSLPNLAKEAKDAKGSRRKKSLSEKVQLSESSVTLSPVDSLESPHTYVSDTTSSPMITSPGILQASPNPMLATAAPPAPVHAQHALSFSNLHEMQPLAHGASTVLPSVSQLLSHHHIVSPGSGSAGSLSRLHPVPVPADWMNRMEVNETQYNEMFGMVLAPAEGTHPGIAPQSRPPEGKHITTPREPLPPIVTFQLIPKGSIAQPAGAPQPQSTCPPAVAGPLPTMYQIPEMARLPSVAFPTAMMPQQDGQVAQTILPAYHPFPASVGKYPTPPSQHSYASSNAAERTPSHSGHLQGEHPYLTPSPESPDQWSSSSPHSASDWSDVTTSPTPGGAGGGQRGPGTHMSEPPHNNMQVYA

Binder | Kd (huNotch2-EGF6-10 [1]) [nM] | koff (huNotch2-EGF6-10 [1]) [s⁻¹] | kon (huNotch2-EGF6-10 [1]) [M⁻¹ s⁻¹] | Jagged1 IC50 [2] [nM] | binding result (huNotch3) | binding result (huNotch1) | binding result (gpNotch2-EGF6-12) | binding result (huNotch2-EGF5-8) | binding result (huNotch2-EGF7-9) | binding result (muNotch2-EGF6-12.K268R) | binding result (huNotch2-EGF4-7) | Kd (huNotch2-EGF6-10 [3]) [nM] | koff (huNotch2-EGF6-10 [3]) [s⁻¹] | kon (huNotch2-EGF6-10 [3]) [M⁻¹ s⁻¹] | Jagged1 IC50 [4] [nM]
B1 | 2.84 | 0.000813 | 286000 | 3.02 | no binding | no binding |  |  |  |  |  |  |  |  | 
B2 | 3.08 | 0.000817 | 265000 | 1.8 | no binding | no binding |  |  |  |  |  |  |  |  | 
B3 | 5 | 0.00182 | 363000 | 2.1 |  |  | binds | binds | binds | binds | binds | 9.12 | 0.00312 | 342000 | 4.88
